Source: paper PMC7823470, “Arabidopsis Plant Natriuretic Peptide Is a Novel Interactor of Rubisco Activase” (Life, 2020)
Entries after “also recorded” stand apart in the source; their conditions may differ. Bridge positions count the residues as written; N and C are the ends. Ends that are not written are not given here. Peptide text beside a SMILES is read from it. * marks the point of attachment. Biotin = O=C1N[C@H]2[C@H](CS[C@H]2CCCCC(=O)*)N1

Tests used:
recombinant RCA (rRCA) [1] = target: T1, recombinant RCA (rRCA) (Arabidopsis thaliana, UniProt P10896); assay: biochemical; assay type: binding
T1 construct: made in house; host or cells: E. coli BL21 (DE3) One Shot
Experimental: (§1) SPR experiments were performed at 20 °C on a Biacore T100 instrument (GE Healthcare LifeSciences) with the use of Series S CM5 […] sensor chips as previously described. Data were acquired with Biacore T100 control software (version 2.0.2, GE Healthcare LifeSciences, Chicago, IL, USA). Kinetic analyses were performed at the flow of 100 μL min^−1 with pAtPNP-A (at 3.78 μM and consecutive two-fold dilutions; 11 injections included) […], whereas recombinant His-tagged RCA was used as […] immobilized on the active surface of the series S CM5 sensor chip with amine coupling kit. The surface was regenerated with glycine solution, pH 2.0 (GE Healthcare LifeSciences). The final sensorgram was generated with Scrubber (BioLogic Software Pty Ltd., Campbell, Australia).
In both analyses the ligand was immobilized at the same levels, analytes were injected at the same concentration and conditions of runs kept constant.

[2] = target: T2, purified recombinant N-terminally His-tagged rubisco activase (rRCA) (Arabidopsis thaliana, UniProt P10896 59-474); assay: SPR; kinetic analysis: His-tagged rRCA immobilised by amine coupling on a Series S CM5 chip, pAtPNP-A injected at 3.78 μM and consecutive two-fold dilutions (11 injections), flow 100 μL/min, regeneration with glycine pH 2.0; Biacore T100, 20 °C; settings: both partners purified
T2 construct: Rubisco activase (RCA), A. thaliana, At2g39730; also called recombinant RCA; source: E. coli BL21 (DE3) One Shot, purified (Ni-NTA beads, HisTrap HP column); not shown: His6, N-terminal, kept
T2 sequence (looked up): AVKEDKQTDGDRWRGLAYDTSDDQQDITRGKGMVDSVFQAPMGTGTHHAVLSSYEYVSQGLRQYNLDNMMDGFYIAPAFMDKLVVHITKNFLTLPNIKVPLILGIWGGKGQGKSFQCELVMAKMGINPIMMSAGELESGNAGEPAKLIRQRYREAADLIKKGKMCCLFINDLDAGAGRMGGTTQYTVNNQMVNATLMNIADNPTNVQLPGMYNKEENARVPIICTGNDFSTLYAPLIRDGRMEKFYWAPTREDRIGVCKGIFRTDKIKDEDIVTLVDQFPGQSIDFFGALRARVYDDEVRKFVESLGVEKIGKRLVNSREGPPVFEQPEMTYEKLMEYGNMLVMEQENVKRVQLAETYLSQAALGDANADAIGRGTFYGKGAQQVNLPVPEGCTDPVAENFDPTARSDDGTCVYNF

[3] = target: T2, purified recombinant N-terminally …; assay: as above; settings: both partners purified; remark: listed apart in the source
[4] = test system: A. thaliana (Col-0) mesophyll cell protoplasts; assay: Mesophyll cell protoplast (MCP) volume assay; assay type: cell-based, Arabidopsis thaliana; settings: MCPs in 0.4 M mannitol, 20 min; 100 nM peptide or 1 μg mL^−1 rAtPNP-A; confocal microscopy, n = 50
Source text: Figure 1 Biologically active peptide containing the active region of AtPNP-A binds to RCA. (a) Schematics showing domain organization of AtPNP-A and the amino acid sequence of N-terminally biotinylated peptides used in the affinity-based experiments. pAtPNP-A—a peptide containing the active site of AtPNP-A; pScr—the corresponding scrambled peptide; SP—signal peptide. Cysteine residues forming a disulfide bond are underlined. (b) Assaying biological activity of the pAtPNP-A and purified recombinant AtPNP-A (rAtPNP-A). A. thaliana (Col-0) mesophyll cell protoplasts suspended in 0.4 M mannitol were treated with either water, or 100 nM pScr (negative control), or with 100 nM pAtPNP-A, or with 1 μg mL^−1 of rAtPNP-A protein for 20 min at room temperature. In each treatment, 50 randomly selected protoplasts with diameter >20 μm were included in quantitative analysis (scale bar = 20 μm). Protoplast volume was measured, and the data obtained from an exemplar experiment are plotted. […]
Biological activity of the synthetic peptides was verified in mesophyll cell protoplast (MCP) volume assay. […] Data are expressed as mean ± SD, and statistical analyses of one-way ANOVA followed by Tukey-Kramer multiple comparison test were performed using Prism 8.0 (GraphPad Software, San Diego, CA, USA).

recombinant RCA (rRCA) [5] = target: T3, recombinant RCA (rRCA) (Arabidopsis thaliana, UniProt P10896); assay: SPR, rAtPNP-A analyte over immobilized rRCA (CM5 chip); assay type: binding; settings: for SPR binding to rRCA: rRCA amine-coupled on CM5 chip, rAtPNP-A as analyte, 20 °C, Biacore T100
T3 construct: made in house; host or cells: E. coli BL21 (DE3) One Shot
T3 sequence (P10896 whole entry, looked up): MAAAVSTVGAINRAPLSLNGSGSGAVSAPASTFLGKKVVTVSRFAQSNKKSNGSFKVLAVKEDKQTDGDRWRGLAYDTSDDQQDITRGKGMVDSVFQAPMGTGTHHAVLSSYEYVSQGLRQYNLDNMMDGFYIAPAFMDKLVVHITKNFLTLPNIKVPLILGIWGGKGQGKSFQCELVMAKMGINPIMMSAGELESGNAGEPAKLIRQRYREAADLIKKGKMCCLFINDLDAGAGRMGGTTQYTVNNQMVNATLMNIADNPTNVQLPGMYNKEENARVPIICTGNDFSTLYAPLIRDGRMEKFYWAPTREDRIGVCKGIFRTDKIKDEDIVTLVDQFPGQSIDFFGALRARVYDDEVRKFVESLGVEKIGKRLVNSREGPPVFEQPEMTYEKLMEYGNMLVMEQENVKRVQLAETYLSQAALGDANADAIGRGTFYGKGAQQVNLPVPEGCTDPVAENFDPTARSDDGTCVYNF
Experimental: as §1
Figure 2 AtPNP-A directly interacts with Arabidopsis RCA in vitro. (a) Molecular docking of AtPNP-A and RCA monomer. Surface model depicts predicted docking of AtPNP-A (blue), with its active region (cyan), and RCA (tan). The structure of AtPNP-A was predicted using the iterative threading assembly refinement (I-TASSER; version 5.1) method, while the 4W5W crystal structure of A. thaliana RCA [33] was derived from RCSB PDB. Protein—protein docking was performed using ClusPro). The models were analyzed and visualized using UCSF Chimera (version 1.10.2). (b) Recombinant protein preparations used in SPR analyses. (c) Exemplar sensorgrams depicting referenced binding response of the recombinant RCA and AtPNP-A proteins.

CC(C)C[C@@H]1NC(=O)[C@H](CC(N)=O)NC(=O)[C@H](CC(N)=O)NC(=O)[C@H](CCCCN)NC(=O)[C@H](C(C)C)NC(=O)CNC(=O)[C@H](C(C)C)NC(=O)[C@H](C(C)C)NC(=O)[C@H](CC(C)C)NC(=O)[C@H]([C@@H](C)O)NC(=O)[C@H](CCC(=O)O)NC(=O)[C@H](CCCNC(=N)N)NC(=O)[C@H](CCC(N)=O)NC(=O)[C@H]([C@@H](C)O)NC(=O)CNC(=O)[C@H](Cc2ccc(O)cc2)NC(=O)[C@@H](NC(=O)[C@H](C)NC(=O)[C@H](CO)NC(=O)[C@H](CCCNC(=N)N)NC(=O)[C@@H](NC(=O)[C@H](Cc2ccc(O)cc2)NC(=O)[C@@H]2CCCN2C(=O)[C@@H]2CCCN2C(=O)[C@H](CC(=O)O)NC(=O)[C@H](Cc2ccc(O)cc2)NC(=O)[C@H](Cc2ccc(O)cc2)NC(=O)[C@@H](NC(=O)[C@H](C)NC(=O)CCCC[C@@H]2SC[C@@H]3NC(=O)N[C@@H]32)C(C)C)[C@@H](C)O)CSSC[C@@H](C(=O)NCC(=O)N[C@@H](CCCNC(=N)N)C(=O)N[C@@H](CCCNC(=N)N)C(=O)N[C@@H](Cc2ccc(O)cc2)C(=O)O)NC(=O)[C@H](C)NC(=O)[C@H](CCCNC(=N)N)NC(=O)CNC(=O)[C@H](CC(N)=O)NC(=O)[C@H](CCC(N)=O)NC(=O)[C@H](Cc2c[nH]c3ccccc23)NC1=O [pAtPNP-A] (Biotin-AVYYDPPYTRSACYGTQRETLVVGVKNNLWQNGRACGRRY-OH; disulfide 13-36)
dissociation constant, range in words (recombinant RCA (rRCA) [1]): sub-micromolar range; also recorded: nanomolar range
kon (recombinant RCA (rRCA) [1]; read-out: ka (±SE), association rate constant): 16300 M⁻¹ s⁻¹
koff (recombinant RCA (rRCA) [1]; read-out: kd (±SE), dissociation rate constant): 0.000852 s⁻¹

B1: pAtPNP-A, N-terminally biotinylated AtPNP-A(33–66) peptide containing the active region of AtPNP-A (peptide, UniProt Q9ZV52 33-66, looked up)
peptide: Biotin-YDPPYTRSACYGTQRETLVVGVKNNLWQNGRACG
modifications: disulfide 10-33 (inferred)
notes: AtPNP-A (plant natriuretic peptide A), A. thaliana, At2g18660, residues 33-66 (active region); Peptides were bought with or without the N-terminal biotin tag; also called biologically active fragment of AtPNP-A; source: synthetic peptide, bought: GenScript (purity at least 95%, HPLC)
Kd [2]: 53 nM
Kd [3]: 52.3 nM

B2: rAtPNP-A: purified N-terminally His-tagged AtPNP-A protein (protein)
chain: AQGKAVYYDPPYTRSACYGTQRETLVVGVKNNLWQNGRACGRRYRVRCIGATYNFDRACTGRTVDVKVVDFCREPCNGDLNLSRDAFRVIANTDAGNIRVVYTPI
modifications: left off: His6, N-terminal, kept
notes: purified N-terminally His-tagged AtPNP-A protein
Effect on protoplast volume [4]: protoplast volume increase
SPR binding to RCA (abstract, in words) (recombinant RCA (rRCA) [5]; full-length recombinant AtPNP-A, SPR): bind specifically to RCA
SPR binding to rRCA (recombinant RCA (rRCA) [5]): bound to the rRCA protein immobilized on the active surface
SPR binding to rRCA (recombinant RCA (rRCA) [5]; listed as recombinant AtPNP-A): confirmed by us in vitro
